In US20220265772A1, “USES OF DAN FAMILY BMP ANTAGONISTS FOR INHIBITING OCULAR NEOVASCULARIZATION AND TREATING OCULAR CONDITIONS” (9636137 Canada Inc., priority 2019, published 2022):

How the values were obtained:
HUVECs = assay: VEGF-induced tube formation (sprouting assay) of HUVECs in 3D fibrin gels; format: cell-based, human; settings: for VEGF-induced tube formation: HUVECs in fibrin gel, 25 ng/ml VEGF, DAND5 0, 15, 30 or 60 ng/ml
Protocol: Sprouting assays were performed as previously described (2). Briefly, HUVECs (250,000 cells/well in 6-well plates) were resuspended in 300 μl fibrinogen solution (2.5 mg/ml fibrinogen, Sigma-Aldrich) in EBM-2 (Lonza) supplemented with 2% FBS and 50 μg/ml aprotinin (Sigma-Aldrich), and plated on top of a pre-coated fibrin layer (400 μl fibrinogen solution clotted with 1 U thrombin (Sigma-Aldrich) for 20 min at 37° C.). The second layer of fibrin was clotted for 1 hr at 37° C. NHDF cells (250,000 cells/well), in EBM-2 supplemented with 2% FBS and 25 ng/ml VEGF, with or without DAND5 (0, 15, 30 or 60 ng/ml), were then plated on top of the fibrin layers. Cultures were incubated at 37° C., 5% CO2.
To test whether DAND5 affects sprouting angiogenesis, human umbilical vein endothelial cells (HUVECs) were cultured in 3D fibrin gels and tube formation was induced with VEGF as previously described (2).

[1] = system: human pluripotent stem cells / stem cell-derived human cones; assay: Cone photoreceptor differentiation, maintenance and survival (earlier study and unpublished work); format: cell-based; settings: in vitro, unpublished work
From the text: Inactivation of DAND5 in mice leads to multiple laterality and cardiovascular defects and a significant proportion of animals die perinatally. […] However, prior to the present invention, it was unknown that DAND5, or any of the six other members of the DAN family of BMP antagonists, could play a role in inhibiting and preventing ocular neovascularization and pathological angiogenesis.

mouse choroidal explants = assay: Choroidal explant sprouting in culture; format: cell-based; settings: P5 mouse choroidal explants exposed to serum and VEGF
Protocol: FIG. 1 is a panel with pictures, bar graphs, and graphs showing that Dand5 reduces VEGF-mediated sprouting angiogenesis in cultured endothelial cells. FIG. 1A: HUVECs grown in a fibrinogen gel were treated with VEGF to induce tube formation in the presence or absence of Dand5. […] FIG. 1B: HUVECs were plated to confluency and scratched to stimulate a wound in the presence or absence of Dand5. Scale bar, 100 μm. FIG. 1C: Quantification of tube formation in FIG. 1A n=3, *p<0.05, **p<0.01). FIG. 1E: Choroids were isolated from wild-type mice and cultured in vitro in the absence or presence of Dand5. […] FIG. 1F: Quantification of sprouting areas in choroidal sprouts (n=3, ***p<0.0001). […] FIG. 1H: HUVECs were cultured in the presence or absence of Dand5 and analyzed by immunofluorescence using antibodies against phospho-Histone 3 (PH3), a marker of cellular mitosis, and phalloidin and DAPI (nuclei). […] FIG. 1I: Quantification immunofluorescent staining of phospho-histone 3 positive cells. […] FIG. 1K: Quantification of immunofluorescent staining of cleaved caspase 3 (n=2, n.s.).
To evaluate the cellular mechanisms underlying the inhibitory effects of DAND5 on endothelial cells sprouting, we assessed the effects of DAND5 on endothelial cell migration and proliferation. […]
We exposed or not HUVECs to recombinant DAND5 and measured the concentration of free radicals using DCFDA and MitoSoxRed™. […]

mitochondria = assay: Immunofluorescence localization of DAND5 in treated HUVECs; format: cell-based, human; settings: HUVECs exposed for 1 h
Protocol: FIG. 9: HUVECs were plated to confluence and exposed or not to Dand5 for 1 hour. Dand5 was not detected before treatment in HUVECs (not shown).
To test where DAND5 is localizes in treated HUVECs, we exposed HUVECs to human recombinant DAND5 for 1 h and performed immune-fluorescence using human anti-mitochondrial antigen antibody and a human anti-DAND5 antibody.

B1: DAND5: human recombinant DAND5/COCO biologically active fragment produced in E. coli, predicted 18.2 kDa monomer, R&D systems 3047-CC-050 (protein)
chain: MRPEPQSPRPQSWAAANQTWALGPGALPPLVPASALGSWKAFLGLQKARQLGMGRLQRGQDEVAAVTLPLNPQEVIQGMCKAVPFVQVFSRPGCSAIRLRNHLCFGHCSSLYIPGSDPTPLVLCNSCMPARKRWAPVVLWCLTGSSASRRRVKISTMLIEGCHCSPKA
HUVECs
  VEGF-induced tube formation: efficiently suppressed VEGF-induced tube formation in a dose-dependent manner
HUVECs; listed as Dand5
  VEGF-induced tube formation: inhibited tube formation in a dose dependent manner
HUVECs; quantification of endothelial tubes, increasing concentrations of DAND5
  vascular tube area: significant reduction in vascular tube area with increasing concentrations
[1]
  survival of stem cell-derived human cones: displays pro-survival activities
Mouse choroidal explants
  growth of choroidal explants: inhibited the growth of P5 mouse choroidal explants exposed to serum and VEGF
mitochondria
  co-localization with mitochondria: robust co-localization of DAND5 with mitochondria
mitochondria; listed as Dand5
  co-localization with mitochondria: co-localizes with mitochondria
